Target: the molecule itself
Assay: Thioflavin T fluorescence assay of amyloid-like fibril formation; 10 μM recombinant protein in PBS without sarkosyl, 30 μM ThT, 37 °C for up to 98 hours; in parallel with 40 μM EGCG, an inhibitor of fibril formation

B1: unfused recombinant Plasmodium falciparum merozoite surface protein 2 (3D7 allele) (domain or fragment)
chain: KNESKYSNTFINNAYNMSIRRSMAESKPSTGAGGSAGGSAGGSAGGSAGGSAGGSAGSGDGNGADAEGSSSTPATTTTTKTTTTTTTTNDAEASTSTSSENPNHKNAETNPKGKGEVQEPNQANKETQNNSNVQQDSQTKSNVPPTQDADTKSPTAQPEQAENSAPTAEQTESPELQSAPENKGTGQHGHMHGSRNNHPQNTSDSQKECTDGNKENCGAATSLLNNSS
notes: Predicted molecular weight 24,721 daltons; also called rPfMSP2; rPfMSP2 (3D7); not shown: His6, N-terminal, kept
Does B1 bind?
Result: binds
